Laboratory results as given in the supplement of paper PMC10567573.

B1: ZNF511 (parent)
chain: EPLPVERDPAAGAAPFRFVARPVR

Variants of: B1
Assay: protein stability index of a GFP-peptide fusion (GPS, HEK-293T) (PSI 1-6); higher = more stable
Conditions: c terminus: a fixed tail appended
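Further: lentivirally expressed fusions sorted by FACS into six bins by GFP to DsRed ratio, PSI derived from sequencing read proportions per bin multiplied by bin number.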

Variant	protein stability index
EPLPVERDPAVGAAPFRFVARPVR [A11V]	1.42
EPLPVERDPAIGAAPFRFVARPVR [A11I]	3.02
EPLPVERDPASGAAPFRFVARPVR [A11S]	2.43
EPLPVERDPAWGAAPFRFVARPVR [A11W]	1.98
EPLPVERDPATGAAPFRFVARPVR [A11T]	2.08
EPLPVERDPADGAAPFRFVARPVR [A11D]	2.33
EPLPVERDPAPGAAPFRFVARPVR [A11P]	2.68
EPLPVERDPAGGAAPFRFVARPVR [A11G]	1.83
EPLPVERDPAHGAAPFRFVARPVR [A11H]	2.61
EPLPVERDPWAGAAPFRFVARPVR [A10W]	1.43
EPLPVERDPEAGAAPFRFVARPVR [A10E]	2.99
EPLPVERDPTAGAAPFRFVARPVR [A10T]	2.15
EPLPVERDPYAGAAPFRFVARPVR [A10Y]	2.97
EPLPVERDPPAGAAPFRFVARPVR [A10P]	2.41
EPLPVERDPQAGAAPFRFVARPVR [A10Q]	2.11
EPLPVERDPNAGAAPFRFVARPVR [A10N]	3.07
EPLPVERDPCAGAAPFRFVARPVR [A10C]	1.88
EPLPVERDPHAGAAPFRFVARPVR [A10H]	1.87
EPLPVERDPSAGAAPFRFVARPVR [A10S]	2.23
EPLPVERDPIAGAAPFRFVARPVR [A10I]	2.44
EPLPVERDPAAGADPFRFVARPVR [A14D]	4.71
EPLPVERDPAAGACPFRFVARPVR [A14C]	2.2
EPLPVERDPAAGAHPFRFVARPVR [A14H]	2.53
EPLPVERDPAAGAGPFRFVARPVR [A14G]	2.55

Variant	protein stability index
EPLPVERDPAAGAMPFRFVARPVR [A14M]	2.42
EPLPVERDPAAGASPFRFVARPVR [A14S]	3.27
EPLPVERDPAAGAVPFRFVARPVR [A14V]	1.51
EPLPVERDPAAGAADFRFVARPVR [P15D]	4.21
EPLPVERDPAAGAAWFRFVARPVR [P15W]	2.32
EPLPVERDPAAGAAQFRFVARPVR [P15Q]	3.78
EPLPVERDPAAGAAIFRFVARPVR [P15I]	3.22
EPLPVERDPAAGAAAFRFVARPVR [P15A]	3.76
EPLPVERDPAAGAASFRFVARPVR [P15S]	4.09
EPLPVERDPAAGAANFRFVARPVR [P15N]	3.64
EPLPVERDPAAGAALFRFVARPVR [P15L]	3.68
EPLPVERRPAAGAAPFRFVARPVR [D8R]	2.21
EPLPVERWPAAGAAPFRFVARPVR [D8W]	1.91
EPLPVERFPAAGAAPFRFVARPVR [D8F]	2.57
EPEPVERDPAAGAAPFRFVARPVR [L3E]	2.97
EPWPVERDPAAGAAPFRFVARPVR [L3W]	2.64
EPCPVERDPAAGAAPFRFVARPVR [L3C]	2.16
EPKPVERDPAAGAAPFRFVARPVR [L3K]	2.4
EPTPVERDPAAGAAPFRFVARPVR [L3T]	2.3
EPAPVERDPAAGAAPFRFVARPVR [L3A]	2.46
EPQPVERDPAAGAAPFRFVARPVR [L3Q]	2.64
EPMPVERDPAAGAAPFRFVARPVR [L3M]	2.28
EPLPVERDPAAGAAPFRFVAFPVR [R21F]	2.51
EPLPVERDPAAGAAPFRFVAPPVR [R21P]	3.54

Variant	protein stability index
EPLPVERDPAAGAAPFRFVAMPVR [R21M]	1.95
EPLPVERDPAAGAAPFRFVAAPVR [R21A]	2.46
EPLPVERDPAAGAAPFRFVAVPVR [R21V]	1.8
EPLPVERDPAAGAAPFRFVAYPVR [R21Y]	1.76
EPLPVERDPAAGAAPFEFVARPVR [R17E]	4.94
EPLPVERDPAAGAAPFQFVARPVR [R17Q]	4.65
EPLPVERDPAAGAAPFIFVARPVR [R17I]	3.6
EPLPVERDPAAGAAPFWFVARPVR [R17W]	3.4
EPLPVERDPAAGAAPFSFVARPVR [R17S]	3.87
EPLPVERDPAAGAAPFKFVARPVR [R17K]	4.42
EPLPVERDPAAGAAPFTFVARPVR [R17T]	4.19
EPLPVERDPAAGAAPFRCVARPVR [F18C]	4.59
EPLPVERDPAAGAAPFREVARPVR [F18E]	5.37
EPLPVERDPAAGAAPFRDVARPVR [F18D]	4.97
EPLPVERDPAAGAAPFRHVARPVR [F18H]	4.71
EPLPVERDPAAGAAPFRNVARPVR [F18N]	4.99
EHLPVERDPAAGAAPFRFVARPVR [P2H]	2.12
EALPVERDPAAGAAPFRFVARPVR [P2A]	2.66
ERLPVERDPAAGAAPFRFVARPVR [P2R]	2.36
EKLPVERDPAAGAAPFRFVARPVR [P2K]	2.06
EFLPVERDPAAGAAPFRFVARPVR [P2F]	1.72
EQLPVERDPAAGAAPFRFVARPVR [P2Q]	1.94
EPLPWERDPAAGAAPFRFVARPVR [V5W]	2.64
EPLPNERDPAAGAAPFRFVARPVR [V5N]	2.82

Variant	protein stability index
EPLPTERDPAAGAAPFRFVARPVR [V5T]	1.83
EPLPIERDPAAGAAPFRFVARPVR [V5I]	2.46
EPLPAERDPAAGAAPFRFVARPVR [V5A]	2.18
EPLPMERDPAAGAAPFRFVARPVR [V5M]	2.71
EPLPYERDPAAGAAPFRFVARPVR [V5Y]	2.1
EPLPLERDPAAGAAPFRFVARPVR [V5L]	2.23
EPLPKERDPAAGAAPFRFVARPVR [V5K]	1.77
EPLPVEEDPAAGAAPFRFVARPVR [R7E]	3.03
EPLPVENDPAAGAAPFRFVARPVR [R7N]	2.32
EPLPVETDPAAGAAPFRFVARPVR [R7T]	3
EPLPVEGDPAAGAAPFRFVARPVR [R7G]	2.1
EPLPVEADPAAGAAPFRFVARPVR [R7A]	2.25
EPLPVECDPAAGAAPFRFVARPVR [R7C]	2.06
EPLPVEDDPAAGAAPFRFVARPVR [R7D]	2.9
EPLPVEWDPAAGAAPFRFVARPVR [R7W]	1.05
EPLPVERDPAAGAAPFRFVARPVA [R24A]	2.2
EPLPVERDPAAGAAPFRFVARPVN [R24N]	2.18
EPLPVERDPAAGAAPFRFVARPVW [R24W]	1.64
EPLPVERDPAAGAAPFRFVARPVK [R24K]	2.04
EPLPVERDPAAGAAPFRFVARPVY [R24Y]	1.78
EPLPVERDPAAGAAPFRFVARPVT [R24T]	1.97
EPLPVERDPAAGAAPFRFVARPVF [R24F]	2.04
